Measurements: patent publication US20060258562A1 (HEALOR, published 2006)

B1: PKCζ (protein kinase C zeta) (enzyme, mouse, UniProt Q02956 1-592, looked up)
chain: MPSRTDPKMDRSGGRVRLKAHYGGDILITSVDAMTTFKDLCEEVRDMCGLHQQHPLTLKWVDSEGDPCTVSSQMELEEAFRLVCQGRDEVLIIHVFPSIPEQPGMPCPGEDKSIYRRGARRWRKLYRANGHLFQAKRFNRGAYCGQCSERIWGLSRQGYRCINCKLLVHKRCHVLVPLTCRRHMDSVMPSQEPPVDDKNDGVDLPSEETDGIAYISSSRKHDNIKDDSEDLKPVIDGVDGIKISQGLGLQDFDLIRVIGRGSYAKVLLVRLKKNDQIYAMKVVKKELVHDDEDIDWVQTEKHVFEQASSNPFLVGLHSCFQTTSRLFLVIEYVNGGDLMFHMQRQRKLPEEHARFYAAEICIALNFLHERGIIYRDLKLDNVLLDADGHIKLTDYGMCKEGLGPGDTTSTFCGTPNYIAPEILRGEEYGFSVDWWALGVLMFEMMAGRSPFDIITDNPDMNTEDYLFQVILEKPIRIPRFLSVKASHVLKGFLNKDPKERLGCRPQTGFSDIKSHAFFRSIDWDLLEKKQTLPPFQPQITDDYGLDNFDTQFTSEPVQLTPDDEDVIKRIDQSEFEGFEYINPLLLSAEESV
B2: PKCα (protein kinase C alpha) (enzyme)
chain: not shown
B3: PKCε (protein kinase C epsilon) (enzyme, mouse, UniProt P16054 1-737, looked up)
chain: MVVFNGLLKIKICEAVSLKPTAWSLRHAVGPRPQTFLLDPYIALNVDDSRIGQTATKQKTNSPAWHDEFVTDVCNGRKIELAVFHDAPIGYDDFVANCTIQFEELLQNGSRHFEDWIDLEPEGKVYVIIDLSGSSGEAPKDNEERVFRERMRPRKRQGAVRRRVHQVNGHKFMATYLRQPTYCSHCRDFIWGVIGKQGYQCQVCTCVVHKRCHELIITKCAGLKKQETPDEVGSQRFSVNMPHKFGIHNYKVPTFCDHCGSLLWGLLRQGLQCKVCKMNVHRRCETNVAPNCGVDARGIAKVLADLGVTPDKITNSGQRRKKLAAGAESPQPASGNSPSEDDRSKSAPTSPCDQELKELENNIRKALSFDNRGEEHRASSATDGQLASPGENGEVRPGQAKRLGLDEFNFIKVLGKGSFGKVMLAELKGKDEVYAVKVLKKDVILQDDDVDCTMTEKRILALARKHPYLTQLYCCFQTKDRLFFVMEYVNGGDLMFQIQRSRKFDEPRSRFYAAEVTSALMFLHQHGVIYRDLKLDNILLDAEGHCKLADFGMCKEGIMNGVTTTTFCGTPDYIAPEILQELEYGPSVDWWALGVLMYEMMAGQPPFEADNEDDLFESILHDDVLYPVWLSKEAVSILKAFMTKNPHKRLGCVAAQNGEDAIKQHPFFKEIDWVLLEQKKIKPPFKPRIKTKRDVNNFDQDFTREEPILTLVDEAIIKQINQEEFKGFSYFGEDLMP
B4: PKCη (protein kinase C eta) (enzyme, mouse, UniProt P23298 1-683, looked up)
chain: MSSGTMKFNGYLRVRIGEAVGLQPTRWSLRHSLFKKGHQLLDPYLTVSVDQVRVGQTSTKQKTNKPTYNEEFCANVTDGGHLELAVFHETPLGYDHFVANCTLQFQELLRTAGTSDTFEGWVDLEPEGKVFVVITLTGSFTEATLQRDRIFKHFTRKRQRAMRRRVHQVNGHKFMATYLRQPTYCSHCREFIWGVFGKQGYQCQVCTCVVHKRCHHLIVTACTCQNNINKVDAKIAEQRFGINIPHKFNVHNYKVPTFCDHCGSLLWGIMRQGLQCKICKMNVHIRCQANVAPNCGVNAVELAKTLAGMGLQPGNISPTSKLISRSTLRRQGKEGSKEGNGIGVNSSSRFGIDNFEFIRVLGKGSFGKVMLARIKETGELYAVKVLKKDVILQDDDVECTMTEKRILSLARNHPFLTQLFCCFQTPDRLFFVMEFVNGGDLMFHIQKSRRFDEARARFYAAEIISALMFLHEKGIIYRDLKLDNVLLDHEGHCKLADFGMCKEGICNGVTTATFCGTPDYIAPEILQEMLYGPAVDWWAMGVLLYEMLCGHAPFEAENEDDLFEAILNDEVVYPTWLHEDATGILKSFMTKNPTMRLGSLTQGGEHEILRHPFFKEIDWAQLNHRQLEPPFRPRIKSREDVSNFDPDFIKEEPVLTPIDEGHLPMINQDEFRNFSYVSPELQL

Each binder was assayed against T1, STAT3 (Signal Transducer and Activator of Transcription 3) (mouse, UniProt P42227 2-770) (assay: co-immunoprecipitation from primary keratinocyte lysates, anti-STAT3 Western blot).
T1 construct: Detected by anti-STAT3 Western blot in PKC immunoprecipitates
Protocol: FIG. 23 identifies a specific interaction between STAT3 and PKCδ in primary skin keratinocytes. Primary keratinocytes were either untreated (upper panel) or infected for 1 hour with isoform specific, recombinant PKC α, δ, η or ζ adenoviruses (lower panel). Cells were extracted and immunoprecipitated (IP) with isoform specific PKC antibodies. The immunoprecipitates were subjected to Western blot analysis using anti-PKCs or anti-STAT3 antibodies.

T1 sequence (P42227 2-770 limits assumed): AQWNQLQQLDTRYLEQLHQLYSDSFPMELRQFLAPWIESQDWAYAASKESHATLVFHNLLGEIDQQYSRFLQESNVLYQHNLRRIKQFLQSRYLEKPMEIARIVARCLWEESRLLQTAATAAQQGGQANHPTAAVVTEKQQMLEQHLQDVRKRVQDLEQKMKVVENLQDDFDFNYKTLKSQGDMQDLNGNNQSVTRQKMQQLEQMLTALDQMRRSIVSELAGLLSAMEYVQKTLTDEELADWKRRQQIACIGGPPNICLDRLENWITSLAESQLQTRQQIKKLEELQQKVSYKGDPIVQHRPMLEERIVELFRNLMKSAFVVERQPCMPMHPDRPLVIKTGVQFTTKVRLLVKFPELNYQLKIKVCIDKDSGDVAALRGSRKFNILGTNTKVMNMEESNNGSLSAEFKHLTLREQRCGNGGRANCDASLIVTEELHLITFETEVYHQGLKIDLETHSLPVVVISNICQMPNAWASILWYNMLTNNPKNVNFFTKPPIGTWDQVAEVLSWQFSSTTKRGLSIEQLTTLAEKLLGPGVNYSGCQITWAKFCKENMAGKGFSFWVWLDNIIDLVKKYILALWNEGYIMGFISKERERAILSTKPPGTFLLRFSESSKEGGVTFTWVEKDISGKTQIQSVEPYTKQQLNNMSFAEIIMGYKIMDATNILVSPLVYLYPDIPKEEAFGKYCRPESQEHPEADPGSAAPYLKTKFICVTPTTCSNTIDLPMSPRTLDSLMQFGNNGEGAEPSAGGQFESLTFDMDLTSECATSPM

Binding result, no binding:
B1
B2
B3
B4
